In assay [1] the test system is MDA-468 breast cancer cell line. Briefly: FACS binding to cell lines. In kind it is cell-based, human.
Assay [2] deals with T1, denatured soluble domain of the EGFR (sEGFR) (Homo sapiens, UniProt P00533).
T1 construct: sEGFR is the recombinant extracellular domain (amino acids 1-621) of the wild-type EGFR; made in house; host or cells: CHO cells
The assay can be described thus: competition ELISA. Format: binding. The settings on record: after unlabeled blocking antibody. On the procedure: Briefly, the denatured soluble domain of the EGFR (sEGFR) was coated on to ELISA plates. The unlabeled 124 or 1133 antibodies were then added across the plate in increasing concentrations.

For another assay, the system named is DU145 xenografts. Briefly: established xenograft model. In kind it is in vivo, nude mice. The settings on record: day 67; 1 mg i.p. The source says: Xenografts were allowed to establish for 18 days before therapy commenced (3 times a week for 3 weeks on days indicated). At this time the average tumor volume was 90 mm^3 (FIG. 68D).

B1: mAb806: murine monoclonal antibody recognizing de2-7 EGFR and amplified EGFR; VH SEQ ID NO:2, VL SEQ ID NO:4 (antibody, listed as Mus musculus, V domains shown)
VH: MRVLILLWLFTAFPGVLSDVQLQESGPSLVKPSQSLSLTCTVTGYSITSDFAWNWIRQFPGNKLEWMGYISYSGNTRYNPSLKSRISITRDTSKNQFFLQLNSVTIEDTATYYCVTAGRGFPYWGQGTLVTVSA
VL: MVSTAQFLAFLLLWFPGARCDILMTQSPSSMSVSLGDTVSITCHSSQDINSNIGWLQQRPGKSFKGLIYHGTNLDDEVPSRFSGSGSGADYSLTISSLESEDFADYYCVQYAQFPWTFGGGTKLEIKR
Regarding B1, the FACS staining entry in assay [1] is given as “clearly stained both cell lines but at a lower level”. Also, in assay [2], the “Binding of biotin-labeled 806” value was “None”. The molecule also registered a mean tumor volume in the assay with DU145 xenografts of 605 mm^3.

For the origin of these results see patent publication US20240117073A1, “METHODS OF TREATING NEOPLASTIC ASTROCYTOMA” (Ludwig Institute for Cancer Research Ltd., priority 2009, published 2024).
